Experimental data published in paper doi:10.1101/2020.03.27.011510 (bioRxiv, 2020).

Experiments:
[1] = target: BIR1 C12A/S87A/N28C-GdI (UniProt P98170); assay: DEER
[2] = target: the molecule itself; assay: DEER
[3] = target: the molecule itself; assay: NMR titration
[4] = target: the molecule itself; assay: DEER; remark: listed apart in the source

Row | Molecule | Kd [2] [µM] | also measured
1 | BIR1 C12A/S87A/N28C-GdI (from UniProt P98170 10-99) (domain or fragment) |  | Kd [1]: 97.5 µM
2 | WT BIR1 C12-GdI (first baculoviral IAP repeat domain of XIAP, spin-labelled at C12 with BrPSPy-DO3A-Gd3+) (domain or fragment, BrPSPy-DO3A-Gd3+ (GdI) spin label on C12 via a thioether bond) KTCVPADINKEEEFVEEFNRLKTFANFPSGSPVSASTLARAGFLYTGEGDTVRCFSCHAAVDRWQYGDSAVGRHRKVSPNCRFINGFYLE | 126 ± 40 | 
3 | BIR1 C12A/E22C-GdI (domain or fragment, BrPSPy-DO3A-Gd3+ (GdI) spin label on C22 (E22C) via a thioether bond) KTAVPADINKEECFVEEFNRLKTFANFPSGSPVSASTLARAGFLYTGEGDTVRCFSCHAAVDRWQYGDSAVGRHRKVSPNCRFINGFYLE | 126 ± 40 | 
4 | BIR1 C12A/V24C-GdI (domain or fragment, BrPSPy-DO3A-Gd3+ (GdI) spin label on C24 (V24C) via a thioether bond) KTAVPADINKEEEFCEEFNRLKTFANFPSGSPVSASTLARAGFLYTGEGDTVRCFSCHAAVDRWQYGDSAVGRHRKVSPNCRFINGFYLE | 126 ± 40 | 
5 | BIR1 C12A/K19C-GdI (domain or fragment, BrPSPy-DO3A-Gd3+ (GdI) spin label on C19 (K19C) via a thioether bond) KTAVPADINCEEEFVEEFNRLKTFANFPSGSPVSASTLARAGFLYTGEGDTVRCFSCHAAVDRWQYGDSAVGRHRKVSPNCRFINGFYLE | 126 ± 40 | 
6 | WT BIR1 (first baculoviral IAP repeat domain of XIAP), without spin label (domain or fragment, 15N isotope-labelled (NMR samples)) KTCVPADINKEEEFVEEFNRLKTFANFPSGSPVSASTLARAGFLYTGEGDTVRCFSCHAAVDRWQYGDSAVGRHRKVSPNCRFINGFYLE |  | Kd [3]: 4.7 ± 2 µM
7 | BIR1 C12A/N28C-GdI (domain or fragment, BrPSPy-DO3A-Gd3+ (GdI) spin label on C28 (N28C) via a thioether bond) KTAVPADINKEEEFVEEFCRLKTFANFPSGSPVSASTLARAGFLYTGEGDTVRCFSCHAAVDRWQYGDSAVGRHRKVSPNCRFINGFYLE | 126 ± 40 | Kd [4]: 11.3 ± 3.8 µM
8 | S87A BIR1 mutant, without spin label (domain or fragment, 15N isotope-labelled (NMR samples)) KTCVPADINKEEEFVEEFNRLKTFANFPSGSPVSASTLARAGFLYTGEGDTVRCFSCHAAVDRWQYGDSAVGRHRKVAPNCRFINGFYLE |  | Kd [3]: 20.3 ± 4.6 µM
